Data on one protein can be found in PMC5134256 (Nature, 2016).

This data set concerns the molecule itself. The data set can be described thus: crystal structure.

B1: Cse2 subunit of E. coli Cascade, His6 tag cleaved (natural protein, E. coli K12, UniProt P76632 1-160, looked up)
chain: MADEIDAMALYRAWQQLDNGSCAQIRRVSEPDELRDIPAFYRLVQPFGWENPRHQQALLRMVFCLSAGKNVIRHQDKKSEQTTGISLGRALANSGRINERRIFQLIRADRTADMVQLRRLLTHAEPVLDWPLMARMLTWWGKRERQQLLEDFVLTTNKNA
In the case of B1, the “stoichiometry N” value is 2.
